Laboratory results from publication PMC6002512, “The Defense-Related Isoleucic Acid Differentially Accumulates in Arabidopsis Among Branched-Chain Amino Acid-Related 2-Hydroxy Carboxylic Acids” (Frontiers in Plant Science, 2018).

How the values were obtained:
Type in all cases: biochemical, Arabidopsis thaliana
[1] = substrate: CC(C)CC(O)C(=O)O; test: HPLC with radiodetection of glucosylated product, non-linear regression; conditions: 2 mM 14C-UDP-glucose, 0.1 M Tris-HCl pH 7.5, 30°C
Source text: (§1) HPLC with radiodetection of glucosylated product, non-linear regression on UGT76B1

[2] = substrate: CC[C@H](C)[C@H](O)C(=O)O; test: as above; conditions: 2 mM 14C-UDP-glucose, 0.1 M Tris-HCl pH 7.5, 30°C
Source text: as §1

purified protein = substrate: O=C(O)c1ccccc1O; test: purified protein; conditions: 2 mM UDP-glucose, 0.1 M Tris-HCl pH 7.5, 30°C

B1: UGT76B1 (Arabidopsis thaliana) (protein)
chain: METRETKPVIFLFPFPLQGHLNPMFQLANIFFNRGFSITVIHTEFNSPNSSNFPHFTFVSIPDSLSEPESYPDVIEILHDLNSKCVAPFGDCLKKLISEEPTAACVIVDALWYFTHDLTEKFNFPRIVLRTVNLSAFVAFSKFHVLREKGYLSLQETKADSPVPELPYLRMKDLPWFQTEDPRSGDKLQIGVMKSLKSSSGIIFNAIEDLETDQLDEARIEFPVPLFCIGPFHRYVSASSSSLLAHDMTCLSWLDKQATNSVIYASLGSIASIDESEFLEIAWGLRNSNQPFLWVVRPGLIHGKEWIEILPKGFIENLEGRGKIVKWAPQPEVLAHRATGGFLTHCGWNSTLEGICEAIPMICRPSFGDQRVNARYINDVWKIGLHLENKVERLVIENAVRTLMTSSEGEEIRKRIMPMKETVEQCLKLGGSSFRNLENLIAYILSF
notes: full coding region including the 5' ATG codon cloned into pDEST15; N-terminal GST fusion; recombinant
[1]
  Km: 461 ± 79 µM
  kcat: 0.582 ± 0.035 s⁻¹
  kcat/Km: 1260 M⁻¹ s⁻¹
[2]
  Km: 472 ± 97 µM
  kcat: 0.914 ± 0.067 s⁻¹
  kcat/Km: 1940 M⁻¹ s⁻¹
Purified protein
  Km: 151 ± 28 µM
  kcat: 0.331 ± 0.016 s⁻¹
  kcat/Km: 2200 M⁻¹ s⁻¹
